# Data reported in paper PMC12495856.
# Legend:
# [1] = target: SARS-CoV-2 PLpro TR (truncated form lacking the Ubl domain) (SARS-CoV-2)
# [2] = target: SARS-CoV-2 papain-like protease (PLpro) wild type (SARS-CoV-2)
substance,measurement,setting,value
human ISG15 (interferon-stimulated gene product 15) (from UniProt P05161 1-157) (natural protein),IC50 of free ISG15 for inhibition of ISG15-AMC cleavage,[1],2050 nM
same,IC50 of free ISG15 for inhibition of Ub-AMC cleavage,[1],1060 nM
same,IC50 of free ISG15 for inhibition of ISG15-AMC cleavage,[2],2050 nM
same,IC50 of free ISG15 for inhibition of Ub-AMC cleavage,[2],1590 nM
